From patent US20250297002A1 (SHANGHAI SINOBAY BIOTECHNOLOGY, published 2025)

B1: Hu004-68-αCD3-BITE (bispecific antibody)
chain: EVQLVESGGGLVQPGGSLRLSCAASGFTFSGYGMSWVRQAPGKGLEWVATITSGGTYTYYPDSVKGRFTISRDNAKNSLYLQMNSLRAEDTAVYYCARSLAGNAMDYWGQGTLVTVSSGGGGSGGGGSGGGGSQVQLVQSGAEVKKPGASVKVSCKASGYTFTRYTMHWVRQAPGQGLEWMGYINPSRGYTNYNQKFKDRVTITADKSTSTAYMELSSLRSEDTAVYYCARYYDDHYCLDYWGQGTTVTVSSGGGGSGGGGSGGGGSEIVLTQSPATLSLSPGERATLSCSASSSVSYMNWYQQKPGKAPKRLIYDTSKLASGVPSRFSGSGSGTDFTLTINSLEAEDAATYYCQQWSSNPFTFGQGTKVEIKGGGGSGGGGSGGGGSEIVLTQSPVTLSVSPGERATLSCRASQGVTSNLAWYQQKPGQAPRLLIYGASTRATGVPARFSGSGSGTEFTLTISSLQSEDFAVYYCQHRGTFGQGTKVDIK
B2: Hu004-101-αCD3-BITE (bispecific antibody)
chain: EVQLVESGGGLVQPGGSLRLSCAASGFTFSGYGMSWVRQAPGKGLEWVATITSGGTYTYYPDSVKGRFTISRDNAKNSLYLQMNSLRAEDTAVYYCARSLAGNAMDYWGQGTLVTVSSGGGGSGGGGSGGGGSQVQLVQSGAEVKKPGASVKVSCKASGYTFTRYTMHWVRQAPGQGLEWMGYINPSRGYTNYNQKFKDRVTITADKSTSTAYMELSSLRSEDTAVYYCARYYDDHYCLDYWGQGTTVTVSSGGGGSGGGGSGGGGSEIVLTQSPATLSLSPGERATLSCSASSSVSYMNWYQQKPGKAPKRLIYDTSKLASGVPSRFSGSGSGTDFTLTINSLEAEDAATYYCQQWSSNPFTFGQGTKVEIKGGGGSGGGGSGGGGSDIQMTQSPSTLSASVGDRVTITCRASQSISNWLAWYQQKPGEAPKLLIYKASNLESGVPSRFSGSGSGTEFTLTISSLQPDDFATYYCQQFGTFGQGTKVEIK

Target: human CD47 (human, UniProt Q08722 19-323)
Test: cell-based or functional assay

| Binder | tumor killing activity on SK-OV3 cells with T cells (luciferase), compared with clone No. 100 [fold] | tumor killing activity on SK-OV3 cells with T cells (luciferase), compared with the T cell control group [fold] | tumor killing activity on SK-OV3 cells with T cells (luciferase), compared with the positive control antibody (B6H12-αCD3-BITE) [fold] | tumor killing activity on NCI-H292 cells with T cells (luciferase), compared with clone No. 100 [fold] | tumor killing activity on NCI-H292 cells with T cells (luciferase), compared with the T cell control group [fold] | tumor killing activity on NCI-H292 cells with T cells (luciferase), compared with the positive control antibody (B6H12-αCD3-BITE) [fold] |
| --- | --- | --- | --- | --- | --- | --- |
| B1 | 2 | 3.5 | 1.5 |  |  |  |
| B2 |  |  |  | 1.2 | 4 | 1.2 |
